What all share (test): FACS on transfected Expi293 cells, antibody 1 µg/ml, labelled anti-human Fc
Assay [1] deals with T1, human-mouse KLB chimeric protein (human KLB (M1-F508)-mouse KLB (P507-S1043)) on cells (human/mouse chimera, UniProt Q99N32 1-1043 (mouse entry)).
T1 construct: also called Human-Mouse chimeric KLB; chHuMo
On the procedure: (§1) Studies were performed in order to localize the binding site on human KLB of anti-beta klotho antibodies in the 5H23 epitope bin, including 5H23 as described in Example 3, with sequences shown in Tables 1-10 and FIGS. 1-3, and human anti-beta klotho antibodies in the 5H23 epitope bin, such as humanized 5H23 antibodies (e.g., VH SEQ ID NO: 271 and VL SEQ ID NO: 276). For example, FACS-based binding assays for domain mapping were performed on Expi293 cells (Life Technologies, A14635) that were transiently transfected with plasmids encoding variants of KLB: human, mouse, cynomolgus, a chimeric version in which the KL1 domain sequence of mouse KLB (M1-F506) replaces the KL1 domain of human KLB (M1-F508) to create mouse-human KLB (SEQ ID NO: 376), and a second chimera in which the human KL1 sequence (M1-F508) replaces the KL1 domain of mouse KLB (M1-F506) to create human-mouse KLB (SEQ ID NO: 374). Additionally, the expression vector pYD7 harboring no KLB sequence was transfected as a negative control.
(§2) In some studies, binding of a purified sample of a humanized 5H23 antibody (e.g., VH SEQ ID NO: 271 and VL SEQ ID NO: 276) to KLB variants was determined by FACS analysis. […] After washing with PBS/1% BSA/0.1% azide, transfected cells were then co-incubated with labeled anti-human Fc (Jackson lmmunoresearch) for 30 minutes at 4° C. After washing with PBS/1% BSA/0.1% azide, cells were acquired on flow cytometer (FACS Calibur) and analyzed by cytometric software (FlowJo). To display the resulting data, graphs plotting the number of cells as a function of fluorescence intensity were generated, and the median fluorescence intensity (MFI) was determined for each sample as shown in Table 30.

In assay [2] the target is T2, mouse-human KLB chimeric protein (mouse KLB (M1-F506)-human KLB (S509-S1044)) on cells (mouse/human chimera, UniProt Q86Z14 1-1044 (human entry)).
T2 construct: also called Mouse-Human chimeric KLB; chMoHu
The procedure:
as §1, §2

The target in assay [3] is T3, mouse beta klotho expressed on cells (mouse (Mus musculus), UniProt Q99N32 1-1043).
T3 construct: also called Mouse KLB
T3 sequence: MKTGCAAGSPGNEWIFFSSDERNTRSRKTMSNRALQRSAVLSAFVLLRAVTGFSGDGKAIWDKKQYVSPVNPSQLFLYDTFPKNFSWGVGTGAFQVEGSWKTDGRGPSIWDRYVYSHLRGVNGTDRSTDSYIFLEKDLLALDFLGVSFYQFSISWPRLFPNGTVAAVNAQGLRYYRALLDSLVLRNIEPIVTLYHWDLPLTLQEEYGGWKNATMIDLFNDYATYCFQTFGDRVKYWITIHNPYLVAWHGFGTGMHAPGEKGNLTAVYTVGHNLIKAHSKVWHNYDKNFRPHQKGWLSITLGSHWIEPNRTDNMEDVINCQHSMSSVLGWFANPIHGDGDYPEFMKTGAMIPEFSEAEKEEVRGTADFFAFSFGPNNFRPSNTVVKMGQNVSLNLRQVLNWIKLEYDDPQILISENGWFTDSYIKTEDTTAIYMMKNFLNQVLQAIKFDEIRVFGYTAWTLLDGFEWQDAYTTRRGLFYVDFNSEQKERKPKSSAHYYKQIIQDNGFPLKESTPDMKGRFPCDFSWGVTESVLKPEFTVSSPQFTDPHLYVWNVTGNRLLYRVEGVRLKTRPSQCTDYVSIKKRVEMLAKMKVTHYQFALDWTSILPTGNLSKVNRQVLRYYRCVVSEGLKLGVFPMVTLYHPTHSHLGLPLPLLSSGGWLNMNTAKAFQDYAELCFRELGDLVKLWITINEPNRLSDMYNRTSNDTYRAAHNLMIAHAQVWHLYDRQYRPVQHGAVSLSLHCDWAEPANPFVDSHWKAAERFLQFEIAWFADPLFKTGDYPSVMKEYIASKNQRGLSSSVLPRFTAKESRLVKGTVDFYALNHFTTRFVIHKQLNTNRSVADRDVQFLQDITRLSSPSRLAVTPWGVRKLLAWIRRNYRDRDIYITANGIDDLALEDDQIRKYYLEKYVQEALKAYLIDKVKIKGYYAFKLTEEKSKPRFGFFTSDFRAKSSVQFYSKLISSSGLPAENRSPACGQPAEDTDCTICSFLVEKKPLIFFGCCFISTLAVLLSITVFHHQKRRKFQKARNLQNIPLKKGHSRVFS
The procedure: as §1, §2

B1: negative control antibody, anti-keyhole limpet hemocyanin (KLH) antibody (antibody, human IgG1, kappa, V domains shown)
VH: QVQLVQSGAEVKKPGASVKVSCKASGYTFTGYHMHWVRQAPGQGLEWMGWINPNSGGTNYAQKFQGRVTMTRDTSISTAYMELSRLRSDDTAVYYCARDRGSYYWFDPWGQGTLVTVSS
VL: DIQMTQSPSSLSASVGDRVTITCRASQGIRNDLGWYQQKPGKAPKRLIYAASSLQSGVPSRFSGSGSGTEFTLTISSLQPEDFATYYCLQHNSYPLTFGGGTKVEIKR
notes: also called Neg; Control; anti-KLH antibody
As to B1, the “Mean Fluorescence intensity” value in assay [1] came out at 6.01 MFI; in assay [2], 5.44 MFI; in assay [3], 9.59 MFI.

B2: humanized 5H23 antibody (VH SEQ ID NO: 271 and VL SEQ ID NO: 276) (antibody, V domains shown)
VH: QVQLQQSGAEVKKPGASVKVSCKASGYTFTSYDINWVRQAPGQGLEWIGWIYPGDGSTKYNEKFKGKATITRDTSASTAYMELSSLRSEDTAVYFCARSDYYGSRSFAYWGQGTLVTVSS
VL: DIVMTQSPDSLAVSLGERATINCRASKSVSTSGYVYMHWYQQKPGQPPKLLIYLASYLESGVPDRFSGSGSGTDFTLTISSVQAEDVAVYYCQHSRDLTFPFGGGTKLEIK
notes: also called h5H23; h5H23 (Prep 1)
For B2, the “Mean Fluorescence intensity” value in assay [1] stood at 9.29 MFI; in assay [2], 26.1 MFI; in assay [3], 14.2 MFI.

Values taken from patent publication US20210030857A1 (NGM BIOPHARMACEUTICALS, published 2021).
